We go through three molecules from US20210054095A1 (PHILOGEN S P A, published 2021).

Assay [1] has as its target CAIX coated on a CM5 chip (Example 2) (human, UniProt Q16790 38-414). Put plainly: SPR (BIAcore X100), CAIX coated CM5 chip, scFv injected as serial dilutions. As for the experimental part: Affinity measurements were performed by surface plasmon resonance using BIAcore X100 instrument using a CAIX coated CM5 chip. The XE114 antibody without glycosylation motif in scFv format was injected as serial-dilutions, in a concentration range from […] to 15.7 nM. Regeneration of the chip was performed by HCl 10 mM.
The BIAcore analysis confirmed that the XE114 antibody without glycosylation motif in scFv format was capable of binding to CAIX.

The target in assay [2] is recombinant His-tagged CAIX (amino acids 120-397 of the full-length protein; SEQ ID NO: 15) (human, UniProt Q16790 120-397). The experiment in a line: SPR (Biacore 3000), His-tagged CAIX on CM5 chip, monomeric scFv injected at 660 nM. As for the experimental part:
Affinity measurements were performed on a Biacore 3000 instrument. 2100 RU recombinant His-tagged CAIX (SEQ ID NO: 15) were immobilized onto a CM5 chip. Peaks representing the monomeric fractions of the scFv were collected by size-exclusion chromatography on a Superdex 75 HR 10/30 column. The monomeric fraction was injected at a flow rate of 10 μl min⁻¹ over the antigen-coated chip at […] different concentrations, 660 nM, 160 nM and 80 nM. All kinetic data were evaluated using the BIAevaluation 4.1 software.

For assay [3], the target named is carbonic anhydrase IX (CAIX) as expressed on SKRC52 human renal cell carcinoma cells, SKRC52 tumour sections … (human, UniProt Q16790 38-459). The experiment in a line: immunofluorescence on frozen human stomach sections, FITC-labelled hIgG1 at 2 ug/ml. The procedure:
Frozen sections of healthy human stomach tissue were stained as follows. Briefly, FITC-labeled antibody XE114 in human IgG1 (hIgG1) format was added at a final concentration of 2 μg/ml to acetone-fixed sections.
Counterstaining for cell nuclei was performed with DAPI. Tissue sections were mounted with fluorescent mounting medium and analysed using an Axioskop2 microscope with a 10× objective.

For orientation: Kd means the equilibrium constant for the complex coming apart. Broadly, the koff is the rate constant with which the complex falls apart. Low readings indicate a long-lived complex, high ones a short-lived complex.

B1: XE114 antibody without glycosylation motif in scFv format (scFv)
scFv: EVQLLESGGGLVQPGGSLRLSCAASGFTFSSYAMSWVRQAPGKGLEWVSAIDGSGGSTYYADSVKGRFTISRDNSKNTLYLQMNSLRAEDTAVYYCVKGPPVFDYWGQGTLVTVSSGGGGSGGGGSGGGGSSELTQDPAVSVALGQTVRITCQGDSLRSYYASWYQQKPGQAPVLVIYGKNNRPSGIPDRFSGSSSGNTASLTITGAQAEDEADYYCQSSKWSWDPVVFGGGTKLTVLG
notes: Expressed in CHO-S cells; also called XE114 w/o glycosylation motif
As to B1, in assay [1], the Kd worked out at 2.71 nM and the koff was found to be 0.000305 s⁻¹.

B2: anti-CAIX XE114 scFv antibody (with the glycosylation motif) (scFv)
scFv: EVQLLESGGGLVQPGGSLRLSCAASGFTFSSYAMSWVRQAPGKGLEWVSAIDGSGGSTYYADSVKGRFTISRDNSKNTLYLQMNSLRAEDTAVYYCVKGPPVFDYWGQGTLVTVSSGGGGSGGGGSGGGGSSELTQDPAVSVALGQTVRITCQGDSLRSYYASWYQQKPGQAPVLVIYGKNNRPSGIPDRFSGSSSGNTASLTITGAQAEDEADYYCNSSKWSWDPVVFGGGTKLTVLG
notes: also called scFv XE114; XE114 single chain Fv
As to B2, the Kd in assay [2] worked out at 15 nM.

B3: XE114 antibody (with the glycosylation motif) in human IgG1 (hIgG1) format (antibody, V domains shown)
VH: EVQLLESGGGLVQPGGSLRLSCAASGFTFSSYAMSWVRQAPGKGLEWVSAIDGSGGSTYYADSVKGRFTISRDNSKNTLYLQMNSLRAEDTAVYYCVKGPPVFDYWGQGTLVTVSS
VL: SSELTQDPAVSVALGQTVRITCQGDSLRSYYASWYQQKPGQAPVLVIYGKNNRPSGIPDRFSGSSSGNTASLTITGAQAEDEADYYCNSSKWSWDPVVFGGGTKLTVLG
modifications: FITC-labelled (site and chain not stated)
notes: also called FITC-labeled antibody XE114; XE114 in IgG format
With B3, in assay [3], the binding result was “binds”.
